Measurements: article PMC3443816

Target: T1, Cbf5 wild type;Nop10;Gar1 (in complex) (Pyrococcus furiosus;Pyrococcus …, UniProt Q7LWY0;Q8U1R4;Q8U029 1-340;1-60;=MG+2-104, ||internal_change)
T1 sequence 1: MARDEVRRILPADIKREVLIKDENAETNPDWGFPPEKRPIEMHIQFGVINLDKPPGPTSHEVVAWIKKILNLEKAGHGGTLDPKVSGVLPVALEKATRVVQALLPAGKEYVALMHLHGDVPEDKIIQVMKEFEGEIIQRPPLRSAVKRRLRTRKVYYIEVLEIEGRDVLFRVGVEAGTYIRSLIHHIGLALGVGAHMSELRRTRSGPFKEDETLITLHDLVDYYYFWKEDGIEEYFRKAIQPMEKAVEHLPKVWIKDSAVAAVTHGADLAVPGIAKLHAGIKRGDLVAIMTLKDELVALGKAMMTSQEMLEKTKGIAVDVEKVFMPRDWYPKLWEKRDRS
T1 sequence 2: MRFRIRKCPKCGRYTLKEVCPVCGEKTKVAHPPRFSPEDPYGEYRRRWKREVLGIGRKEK
T1 sequence 3: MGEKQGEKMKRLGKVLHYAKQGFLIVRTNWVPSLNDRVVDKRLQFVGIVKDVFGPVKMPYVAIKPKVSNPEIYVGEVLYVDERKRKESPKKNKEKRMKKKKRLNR
Test: filter binding

B1: H/ACA guide RNA Pf4 (structured_RNA)
RNA: AAUGCCCCUCCCCUCUCACACCCCCGUGAGAAGUGAGCGGGGGGCGGUCGGGGAGGGGACAUCA
Kd: 21 ± 8 nM
